{
  "source": "patent US20100278838A1",
  "about": "“EPHA2 MONOCLONAL ANTIBODIES AND METHODS OF USE THEREOF” (MEDIMMUNE, LLC, priority 2002, published 2010)",
  "key": {"[1]": {"tested_on": "EphA2 on non-transformed MCF-10A cells", "assay": "Flow cytometry of EA2 binding, non-transformed cells with or without EGTA", "format": "cell-based", "conditions": "10 μg/ml EA2; 4 mM EGTA 10-15 minutes on ice", "description": "(§1) (A, B) Non-transformed MCF-10A cells were labeled with EA2 at 4° C. either before (A) or after (B) treatment with EGTA and prior to fixation and immunolabeling with fluorophore-conjugated anti-mouse IgG. (C, D) Non-transformed MCF-10A (C) or transformed MDA-MB-231 (D) cells were labeled with EA2 either before (middle) or after (top) treatment with EGTA. Control cells were incubated with secondary antibody alone (bottom). The amount of EA2-EphA2 binding was measured using flow cytometry.\nAn equivalent experiment was performed using MCF-10A or MDA-MB-231 cells. The amount of EA2 binding to EphA2 was measured using flow cytometry (FIGS. 17C-17D). Cells were either treated by incubation in 4 mM EGTA for 10-15 minutes on ice (top panel) or were not treated with EGTA (middle panel) before incubation with 10 μg/ml EA2. Cells were then fixed with 3% formalin and labeled with fluorophore-labeled donkey anti-mouse IgG. Control cells were incubated only with secondary antibody (fluorophore-labeled donkey anti-mouse IgG) in the absence of primary antibody (EA2) (bottom panel). The samples were then evaluated using flow cytometry (Becton Dickinson FACStar Plus)."}, "[2]": {"tested_on": "EphA2 on non-transformed MCF-10A cells", "assay": "Immunofluorescence binding to non-transformed cells with or without EGTA", "format": "cell-based", "conditions": "4mM EGTA for 20 min", "description": "as §1\nThe epitopes of EphA2 antibodies were characterized. Non-transformed MCF-10A cells or transformed MDA-MB-231 cells were incubated with 10 μg/ml Eph099B-233.152 or EA2 at 4° C. for 30 min. prior to fixation in a 3% formalin solution and immunolabeling with fluorophore-conjugated anti-mouse IgG. […] Treatment of non-transformed MCF-10A cells with 4mM EGTA for 20 min. dissociated the cells."}, "[3]": {"tested_on": "MDA-MB-231 breast cancer cells implanted orthotopically", "assay": "Tumor growth in vivo, MDA-MB-231 implanted orthotopically", "design": "species or system athymic mice", "conditions": "6mg/kg intraperitoneally twice a week for 3 weeks; versus PBS or 1A7", "description": "FIGS. 7A-7D: The EphA2 antibodies, EA2, Eph099B-208.261, and Eph099B-233.152, inhibit tumor cell growth in vivo. MDA-MB-231 breast cancer cells were implanted (A) orthotopically or (B) subcutaneously into athymic mice. (C) A549 lung cancer cells were implanted subcutaneously into athymic mice. After the tumors had grown to an average volume of 100 mm^3, mice were administered 6 mg/kg of the indicated antibody or negative control (PBS or 1A7 antibody) intraperitoneally twice a week for 3 weeks. Tumor growth was assessed and expressed as a ratio of the tumor volume divided by initial tumor volume (100 mm^3). (D) MDA-MB-231 breast cancer cells were implanted subcutaneously into athymic mice. After the tumors had grown to an average volume of 100 mm^3, mice were administered 6 mg/kg of the indicated antibody or negative control intraperitoneally twice a week for 3 weeks. Total tumor volume was determined after sacrifice. Negative control is black, EA2 is white, Eph099B-208.261 is dark grey, and Eph099B-233.152 is light grey.\n5×10^6MDA-MB-231 breast cancer cells were implanted orthotopically or subcutaneously and 5×10^6 A549 lung cancer cells were implanted subcutaneously into athymic mice. […] Tumor growth was assessed and expressed either as a ratio of the tumor volume divided by initial tumor volume (100 mm^3) or as total tumor volume. […]"}, "control MCF-7 cells": {"tested_on": "control MCF-7 cells", "assay": "Soft agar colonization of control MCF-7 cells", "format": "cell-based", "conditions": "EA2 10 μg/ml, tamoxifen 1 μM", "description": "FIGS. 11A-11B: EphA2 overexpression decreases tamoxifen sensitivity. (A) 1×10^5 MCF-7 or MCF-7^EphA2 cells were suspended in soft agar in the presence of 1 μM tamoxifen (TAM) and or 1 μM 17β-estradiol and colony formation was evaluated microscopically after 14 days. (B) MCF-7 (circles) or MCF-7^EphA2 cells (squares) were implanted into the mammary fatpad (n=15 mice per group) in the presence of supplemental estrogen. Tamoxifen treatment was initiated 17 days post-implantation. Tumor volume of tamoxifen treated (black circles and squares) and saline treated (white circles and squares) animals was measured at the indicated time.\nFIGS. 13A-13C: EphA2 agonistic antibody EA2 decreases malignant growth. MCF-7^EPhA2 cells were incubated in the presence of 3 μg/ml of EA2 for the time indicated prior to sample extraction and western blot analyses with an EphA2-specific antibody (D7). […]\nEphA2 overexpression increased malignant growth (FIGS. 8A-8B). […] Colony formation in soft agar was performed as previously described (Zelinski et al., 2001, Cancer Res. 61:2301-6) and scored microscopically, defining clusters of at least three cells as a positive. […] Error bars represent the standard error of the mean of at least three different experiments as determined using Microsoft Excel software.\nSensitivity of MCF-7^EphA2 cells to tamoxifen was measured. […]"}, "EphA2": {"molecular_target": "EphA2 (Homo sapiens, UniProt P29317)", "sequence (P29317 24-976)": "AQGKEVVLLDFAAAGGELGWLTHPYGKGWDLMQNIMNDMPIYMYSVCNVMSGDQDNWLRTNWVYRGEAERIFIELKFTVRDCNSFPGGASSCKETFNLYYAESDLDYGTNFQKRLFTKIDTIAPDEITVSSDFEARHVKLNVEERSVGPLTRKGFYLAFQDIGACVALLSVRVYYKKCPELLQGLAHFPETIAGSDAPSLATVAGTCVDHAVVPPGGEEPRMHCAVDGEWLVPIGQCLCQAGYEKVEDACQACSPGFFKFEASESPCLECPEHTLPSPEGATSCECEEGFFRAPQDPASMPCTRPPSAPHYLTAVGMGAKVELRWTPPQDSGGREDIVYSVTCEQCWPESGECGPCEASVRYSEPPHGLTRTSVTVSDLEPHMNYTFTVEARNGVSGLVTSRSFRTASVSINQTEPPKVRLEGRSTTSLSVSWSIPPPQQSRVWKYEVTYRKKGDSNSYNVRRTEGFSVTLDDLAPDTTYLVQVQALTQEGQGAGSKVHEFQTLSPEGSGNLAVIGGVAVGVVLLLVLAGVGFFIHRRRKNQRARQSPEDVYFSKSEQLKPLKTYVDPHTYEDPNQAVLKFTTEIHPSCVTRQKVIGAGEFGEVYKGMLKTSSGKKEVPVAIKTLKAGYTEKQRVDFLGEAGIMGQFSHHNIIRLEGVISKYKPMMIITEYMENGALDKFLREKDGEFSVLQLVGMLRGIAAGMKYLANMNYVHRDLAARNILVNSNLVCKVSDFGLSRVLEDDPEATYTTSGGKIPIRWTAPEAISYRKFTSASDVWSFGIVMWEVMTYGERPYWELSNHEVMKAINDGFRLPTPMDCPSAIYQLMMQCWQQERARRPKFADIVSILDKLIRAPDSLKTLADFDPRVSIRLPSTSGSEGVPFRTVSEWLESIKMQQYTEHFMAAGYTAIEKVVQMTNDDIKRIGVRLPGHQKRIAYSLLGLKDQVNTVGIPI", "assay": "EphA2 expression level in MCF-7^EphA2 cells after EA2 (western blot)", "format": "cell-based", "conditions": "3 μg/ml EA2", "description": "FIGS. 13A-13C: EphA2 agonistic antibody EA2 decreases malignant growth. MCF-7^EPhA2 cells were incubated in the presence of 3 μg/ml of EA2 for the time indicated prior to sample extraction and western blot analyses with an EphA2-specific antibody (D7). (B) The membrane was stripped and re-probed with a β-catenin-specific antibody as a loading control. (C) 1×10^5 control or MCF-7^EphA2 cells were suspended in soft agar in the presence or absence of tamoxifen (TAM, 1 μM) and EphA2 agonistic antibody (EA2, 10 μg/ml).\nGrowth MCF-7^EphA2 cells which had decreased EphA2 expression levels was assayed in soft agar. The EphA2 monoclonal antibody EA2 induced EphA2 activation and subsequent degradation. […] Whereas EA2 decreased soft agar colonization (by 19%), the combination of EA2 and tamoxifen caused a much more dramatic (>80%) decrease in soft agar colonization."}},
  "note": "Entries after “also recorded” stand apart in the source; their conditions may differ.",
  "data": [
    {"molecule": "EA2: EphA2 agonistic monoclonal antibody; ATCC deposit no. PTA-4380; co-pending application Ser. No. 10/436,783; VL SEQ ID NO:33, VH SEQ ID NO:37 (antibody, listed as Homo Sapiens, V domains shown) VH: DVKLVESGGGLVKPGGSLKLSCAASGFTFSSYTMSWVRQTPEKRLEWVATISSGGTYTYYPDSVKGRFTISRDNAKNTLYLQMSSLKSEDTAMYYCTREAIFTYWGQGTLVTVSA VL: DIKMTQSPSSMYASLGERVTITCKASQDINNYLSWFQQKPGKSPKTLIYRANRLVDGVPSRFSGSGSGQDYSLTISSLEYEDMGIYYCLKYDEFPYTFGGGTKLEIK", "values": [
      {"measurement": "Effect of EGTA treatment on EA2 binding, non-transformed cells", "setting": "[1]", "result": "increased by incubation in EGTA"},
      {"measurement": "Binding to EphA2 on MCF-10A cells with or without EGTA dissociation", "setting": "[2]", "result": "bound EphA2 on the EGTA dissociated cells but not the untreated cells; also recorded: preferentially binds EphA2 epitopes exposed by decreasing cell-cell contacts"},
      {"measurement": "Growth of MDA-MB-231 cells implanted orthotopically", "setting": "[3]", "result": "inhibited"},
      {"measurement": "Effect of EA2 on tamoxifen response of control MCF-7 cells in soft agar", "setting": "control MCF-7 cells", "result": "did not further alter this response"},
      {"measurement": "EphA2 expression level", "setting": "EphA2", "result": "Decreased levels of EphA2 expression were observed within two hours"},
      {"measurement": "Time EphA2 remained undetectable", "setting": "EphA2", "result": "≥ 24", "unit": "h"}
    ]}
  ]
}
